Results on one molecule are retold here after patent publication US20100233189A1.

A value given as a limit tells only on which side of the number the result lay.

The target of this assay is human TSHR with mutation K209E expressed in CHO cells (human) (UniProt P16473). Description: cell-based or functional assay.
Sequence of UniProt P16473 (P16473 22-764 K209E/E727D): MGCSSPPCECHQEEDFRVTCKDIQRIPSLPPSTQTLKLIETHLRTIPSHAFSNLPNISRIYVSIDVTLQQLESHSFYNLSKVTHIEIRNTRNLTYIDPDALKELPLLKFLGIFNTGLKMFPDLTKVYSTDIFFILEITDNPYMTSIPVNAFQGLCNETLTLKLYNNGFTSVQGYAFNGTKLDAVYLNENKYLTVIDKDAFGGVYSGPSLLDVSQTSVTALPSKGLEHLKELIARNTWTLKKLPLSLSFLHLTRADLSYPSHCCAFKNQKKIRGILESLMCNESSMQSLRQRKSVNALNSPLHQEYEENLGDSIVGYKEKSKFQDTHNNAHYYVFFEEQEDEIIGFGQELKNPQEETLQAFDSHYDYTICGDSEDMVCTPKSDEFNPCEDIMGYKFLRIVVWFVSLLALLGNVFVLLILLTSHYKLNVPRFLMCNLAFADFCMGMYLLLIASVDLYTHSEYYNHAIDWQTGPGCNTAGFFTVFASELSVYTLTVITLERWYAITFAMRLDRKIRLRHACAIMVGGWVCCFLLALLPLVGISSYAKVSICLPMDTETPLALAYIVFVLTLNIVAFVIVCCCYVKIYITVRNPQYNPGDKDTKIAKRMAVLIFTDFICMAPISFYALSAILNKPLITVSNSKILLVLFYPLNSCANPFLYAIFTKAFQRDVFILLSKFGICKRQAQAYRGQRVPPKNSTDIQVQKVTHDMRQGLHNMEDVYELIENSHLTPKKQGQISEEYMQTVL

B1: M22 Fab (Fab fragment of human monoclonal thyroid stimulating autoantibody hMAb TSHR1) (Fab, from another filing, V domains shown)
VH: QVQLVQSGAEVKKPGESLKISCRGSGYRFTSYWINWVRQLPGKGLEWMGRIDPTDSYTNYSPSFKGHVTVSADKSINTAYLQWSSLKASDTGMYYCARLEPGYSSTWSVNWGQGTLVTVSS
VL: LTVLTQPPSVSGAPRQRVTISCSGNSSNIGNNAVNWYQQLPGKAPKLLIYYDDQLPSGVSDRFSGSRSGTSASLAIRGLQSEDEADYYCTSWDDSLDSQLFGGGTRLTVLG
As for B1, the M22 stimulating activity (cyclic AMP production in TSHR expressing CHO cells) (% of activity with the wild type TSHR) is under 20.
